Columns and labels:
SCC152 cells = assay: Magnitude breadth analysis of phagocytosis by CER type (pHrodo red / CELLTRACE violet microscopy); type: cell-based; settings: CD4+ T cells, pHrodo red stained SCC152
Description: Top image is an enlargement of a cell in the lower left image showing a SCC152 cell engulfed by CER126-transduced CD4+ T cell. […] White arrow indicates CD8+ T cell transduced with E7-specific TCR and that is pHrodo Red negative (lower left panel of FIG. 60B). Software rendition of phagocytosis (lower right panel of FIG. 60B).
Various CER-modified CD4+ T cells were also evaluated for breadth of response to determine whether a particular CER confers a broad phagocytic response of low magnitude (e.g., 10% engulfment in 90% of cells) or a less frequent but strong phagocytic response (e.g., 90% engulfment in 10% of cells) in the host cells. CD8+ T cells were transduced with HPV16 E7 specific TCR as described in Example 1. CD4+ T cells were transduced with lentiviral vectors comprising a CER21, CER27, CER104, CER116, or CER117 nucleic acid. Mock-transduced (vector alone) CD4+ T cell were used as control. CD4+/CER+ and CD8+/E7 TCR+ T cells were stained with CELLTRACE violet. HPV16 E7+ head and neck squamous cell carcinoma cells (SCC152) were stained with pHrodo red. HPV16 E7 TCR transduced CD8+ T cells and selected CER transduced CD4+ T cells were mixed at a 1:1 ratio and co-cultured with SCC152 cells at a 1:1 ratio for 8 hours. Phagocytosis of target SCC152 cells by CER-transduced CD4+ T cells was analyzed by fluorescence microscopy. […] The horizontal axis represents the % area of CER-transduced CD4+ T cells having engulfment or % area of the CER-transduced CD4+ T cells taken up by target SCC152 cells. This measure was rarely above 40% across CER types tested. The vertical axis represents the proportion of CER-transduced CD4+ T cells that were phagocytic. For CER104, about 20% of CER104-transduced CD4+ T cells have more than 10% engulfment. For CER117-transduced CD4+ T cells, less than 10% have more than 10% engulfment.

[1] = tested on: HCC827 adenocarcinoma cells; assay: HCC827 xenograft in NSG mice with osimertinib, bioluminescence imaging and immunofluorescence; type: in vivo
Description: Growth of HCC827/luceriferase^+ cells in NSG mice upon adoptive transfer of purified hCER122 modified CD4+ T cells or hCER122 modified CD+ T cells with concomitant targeted inhibitor therapy was measured by bioluminescence imaging. Data represents mean values (n=5 mice/treatment group).
Tumor specimens were stained with anti-EGFR (tumor antigen), anti-CD4, anti-PD1, and DAPI counter-stain (left image).
CD3+ or CD4+ T cells were purified from PBMCs, activated, and transduced with lentiviral vector comprising hCER122 nucleic acid. hCER122 is a human CER122 construct comprising a Tim4 binding domain, a Tim4 transmembrane domain, TLR2 engulfment signaling domain, and Dap12 engulfment signaling domain and comprises an amino acid sequence of SEQ ID NO:179. Transduced T cells were expanded. hCER122 modified CD3+ T cells (2.5×10^6 or 5×10^6) or hCER122 modified CD4+ T cells (2.5×10^6 or 5×10^6) were infused into NSG mice engrafted with HCC827 adenocarcinoma cells (2 million/mouse). HCC827 xenograft mice also received 1 mg/kg osimertinib post-engraftment. […] Microscopy images of immunofluorescence stained tumor cells from HCC827 xenograft model at day 16. Tumor specimens were stained with anti-EGFR (tumor antigen), anti-CD4, anti-PD1, and DAPI counter-stain.

[2] = tested on: HPV+ SCC152/luceriferase+ cells; assay: SCC152/luciferase xenograft in NSG mice, bioluminescence imaging; type: in vivo; settings: E7 TCR CD8+ T cells + mock transduced CD4+ T cells; compared to untreated controls
Description: HPV+ SCC152 engrafted NSG mice were treated with HPV E7 TCR modified CD8+ T cells+CD4+ T cells (mock transduced), HPV E7 TCR modified CD8+ T cells+hCER104 modified CD4+ T cells, or untreated. FIG. 74B is a graph of mean values of bioluminescence signal intensities obtained for treatment group.
HPV+ SCC152/luceriferase^+ cells were engrafted in NSG mice. Once tumors were established, mice were treated with HPV E7 specific TCR (SEQ ID NO:84) modified CD8+ T cells+mock transduced CD4+ T cells, HPV E7 specific TCR modified CD8+ T cells+hCER104 (SEQ ID NO:176) modified CD4+ T cells, or untreated (n=5 per treatment group). HPV E7 CD8+ T cells and hCER104 CD4+ T cells were administered at a 1:1 ratio. Tumor volume was measured over time by bioluminescence imaging (see, FIGS. 74A-74B).

B1: CER126: Chimeric engulfment receptor: Tim4 binding, Tim4 transmembrane, TLR2 and TRAF2 signaling; SEQ ID NO: 169 (protein)
chain: MSKGLLLLWLVTELWWLYLTPAASEDTIIGFLGQPVTLPCHYLSWSQSRNSMCWGKGSCPNSKCNAELLRTDGTRIISRKSTKYTLLGKVQFGEVSLTISNTNRGDSGVYCCRIEVPGWFNDVKKNVRLELRRATTTKKPTTTTRPTTTPYVTTTTPELLPTTVMTTSVLPTTTPPQTLATTAFSTAVTTCPSTTPGSFSQETTKGSAFTTESETLPASNHSQRSMMTISTDIAVLRPTGSNPGILPSTSQLTTQKTTLTTSESLQKTTKSHQINSRQTILIIACCVGFVLMVLLFLAFLHRFHGLWYMKMMWAWLQAKRKPRKAPSRNICYDAFVSYSERDAYWVENLMVQELENFNPPFKLCLHKRDFIPGKWIIDNIIDSIEKSHKTVFVLSENFVKSEWCKYELDFSHFRLFDENNDAAILILLEPIEKKAIPQRFCKLRKIMNTKTYLEWPMDEAQREGFWVNLRAAIKSMAAASVTPPGSLELLQPGFSKTLLGTKLEAKYLCSACRNVLRRPFQAQCGHRYCSFCLASILSSGPQNCAACVHEGIYEEGISILESSSAFPDNAARREVESLPAVCPSDGCTWKGTLKEYESCHEGRCPLMLTECPACKGLVRLGEKERHLEHECPERSLSCRHCRAPCCGADVKAHHEVCPKFPLTCDGCGKKKIPREKFQDHVKTCGKCRVPCRFHAIGCLETVEGEKQQEHEVQWLREHLAMLLSSVLEAKPLLGDQSHAGSELLQRCESLEKKTATFENIVCVLNREVERVAMTAEAC
modifications: CER126, amino acids 1-22 are signal peptide
With B1 the “engulfment of SCC152 target cells seen in fluorescent micrographs” value (SCC152 cells) was “engulfed”.

B2: hCER122: human CER122 construct: Tim4 binding domain, Tim4 transmembrane domain, TLR2 and Dap12 engulfment signaling domains; SEQ ID NO:179 (protein)
chain: ETVVTEVLGHRVTLPCLYSSWSHNSNSMCWGKDQCPYSGCKEALIRTDGMRVTSRKSAKYRLQGTIPRGDVSLTILNPSESDSGVYCCRIEVPGWFNDVKINVRLNLQRASTTTHRTATTTTRRTTTTSPTTTRQMTTTPAALPTTVVTTPDLTTGTPLQMTTIAVFTTANTCLSLTPSTLPEEATGLLTPEPSKEGPILTAESETVLPSDSWSSVESTSADTVLLTSKESKVWDLPSTSHVSMWKTSDSVSSPQPGASDTAVPEQNKTTKTGQMDGIPMSMKNEMPISQLLMIIAPSLGFVLFALFVAFLHRFHGLWYMKMMWAWLQAKRKPRKAPSRNICYDAFVSYSERDAYWVENLMVQELENFNPPFKLCLHKRDFIPGKWIIDNIIDSIEKSHKTVFVLSENFVKSEWCKYELDFSHFRLFDENNDAAILILLEPIEKKAIPQRFCKLRKIMNTKTYLEWPMDEAQREGFWVNLRAAIKSYFLGRLVPRGRGAAEAATRKQRITETESPYQELQGQRSDVYSDLNTQRPYYK
modifications: hCER122
With B2 the “anti-tumor response (bioluminescence)” value ([1]; CER-modified CD3+ and CD4+ T cells plus 1 mg/kg osimertinib, compared to osimertinib alone) was “enhanced anti-tumor responses”, the “tumor elimination (bioluminescence)” value ([1]; CER-modified CD4+ T cells plus 1 mg/kg osimertinib) was “eliminated tumors” and the “T cell infiltration of tumor, immunofluorescence staining” value ([1]; day 16, anti-EGFR, anti-CD4, anti-PD1, DAPI) was “infiltration of PD1+CD4+ T cells (functionally active) into tumor stroma”.

B3: HPV E7 specific TCR: HPV16 E7 specific TCR (see WO2015/184228), TCRβ and TCRα chains joined by P2A; SEQ ID NO:84; expressed in CD8+ T cells (protein)
chain: MAPGLLCWALLCLLGAGLVDAGVTQSPTHLIKTRGQQVTLRCSPKSGHDTVSWYQQALGQGPQFIFQYYEEEERQRGNFPDRFSGHQFPNYSSELNVNALLLGDSALYLCASSLGWRGGRYNEQFFGPGTRLTVLEDLRNVTPPKVSLFEPSKAEIANKQKATLVCLARGFFPDHVELSWWVNGKEVHSGVCTDPQAYKESNYSYCLSSRLRVSATFWHNPRNHFRCQVQFHGLSEEDKWPEGSPKPVTQNISAEAWGRADCGITSASYQQGVLSATILYEILLGKATLYAVLVSTLVVMAMVKRKNSRAKRSGSGATNFSLLKQAGDVEENPGPMWGVFLLYVSMKMGGTTGQNIDQPTEMTATEGAIVQINCTYQTSGFNGLFWYQQHAGEAPTFLSYNVLDGLEEKGRFSSFLSRSKGYSYLLLKELQMKDSASYLCASVDGNNRLAFGKGNQVVVIPNIQNPEPAVYQLKDPRSQDSTLCLFTDFDSQINVPKTMESGTFITDKCVLDMKAMDSKSNGAIAWSNQTSFTCQDIFKETNATYPSSDVPCDATLTEKSFETDMNLNFQNLLVIVLRILLLKVAGFNLLMTLRLWSS
modifications: HPV16 E7 TCRbeta chain-P2A-TCRalpha chain
notes: HPV16 E7 specific TCR (see WO2015/184228), TCRβ and TCRα chains joined by P2A; expressed in CD8+ T cells
With B3 the “anti-tumor response (bioluminescence)” value [2] was “anti-tumor response”.
